# Assay results from patent US20100004432, “APTAMER AGAINST MIDKINE AND USE THEREOF” (RIBOMIC INC., published 2010).
# Positions count from the first letter of the chain named.
# T1: midkine (full-length) (Homo sapiens, UniProt P21741 P21741:23-143)
# T1 sequence: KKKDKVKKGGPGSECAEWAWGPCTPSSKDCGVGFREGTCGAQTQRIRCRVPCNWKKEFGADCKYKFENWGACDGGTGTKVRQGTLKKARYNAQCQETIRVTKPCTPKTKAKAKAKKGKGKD
# B1: SEQ ID NO:20-1 (ssRNA)
# RNA: GGGAGAGGAACGACGAGGAGUAGCCGGAAAGAAGGCGGCGUC
# modifications: 2'-F pyrimidines; 2'-OMe on all purines of the 5' single-stranded part g1-a10
# B2: SEQ ID NO:20-2 (ssRNA)
# RNA: B1 RNA
# modifications: 2'-F pyrimidines; 2'-OMe purines of first stem: gggagaggaac(F)g(M)a(M)c(F)g(M)aggagu(F)agc(F)c(F)ggaaagaaggc(F)ggc(F)g(M)u(F)c(F)
# B3: SEQ ID NO:20-11 (ssRNA)
# RNA: B1 RNA
# modifications: 2'-F pyrimidines; 20-5 pattern plus 2'-OMe: c(F)g(M)a(M)c(F), gga(M)aa(M)gaagg, c(F)g(M)g(M)c(F)g(M)u(F)c(F)
# B4: SEQ ID NO:20-12 (ssRNA)
# RNA: B1 RNA
# modifications: 2'-F pyrimidines; 20-5 pattern plus 2'-OMe: c(F)g(M)a(M)c(F), gga(M)aa(M)g(M)aagg, 3' g(M)u(F)c(F)
# B5: SEQ ID NO:20-13 (ssRNA)
# RNA: B1 RNA
# modifications: 2'-F pyrimidines; 20-5 pattern plus 2'-OMe: c(F)g(M)a(M)c(F), gga(M)aa(M)gaag(M)g, 3' g(M)u(F)c(F)
# B6: SEQ ID NO:20-3 (ssRNA)
# RNA: B1 RNA
# modifications: 2'-F pyrimidines; 2'-OMe purines of second stem: gggagaggaac(F)gac(F)gaggagu(F)ag(M)c(F)c(F)ggaaagaag(M)g(M)c(F)ggc(F)gu(F)c(F)
# B7: SEQ ID NO:20-4 (ssRNA)
# RNA: B1 RNA
# modifications: 2'-F pyrimidines; 2'-OMe G in loop: c(F)c(F)g(M)g(M)aaag(M)aagg
# B8: SEQ ID NO:20-5 (ssRNA)
# RNA: B1 RNA
# modifications: 2'-F pyrimidines; 20-1 pattern (2'-OMe 5' single strand) plus 2'-OMe A in bulge: ga(M)gga(M)gu(F)a(M)g
# B9: SEQ ID NO:20-6 (ssRNA)
# RNA: B1 RNA
# modifications: 2'-F pyrimidines; 20-1 pattern plus 2'-OMe G in bulge: gag(M)g(M)ag(M)u(F)ag
# B10: SEQ ID NO:20-7 (ssRNA)
# RNA: B1 RNA
# modifications: 2'-F pyrimidines; 20-1 pattern plus 2'-OMe A in loop: gga(M)aa(M)gaagg
# B11: SEQ ID NO:20-8 (ssRNA)
# RNA: B1 RNA
# modifications: 2'-F pyrimidines; 20-5 pattern plus 2'-OMe A in loop: gga(M)aa(M)gaagg
# B12: SEQ ID NO:20-9 (ssRNA)
# RNA: B1 RNA
# modifications: 2'-F pyrimidines; 20-5 pattern plus 2'-OMe first stem: c(F)g(M)a(M)c(F)g and 3' g(M)u(F)c(F)
# B13: SEQ ID NO:20-10 (ssRNA)
# RNA: B1 RNA
# modifications: 2'-F pyrimidines; 20-5 pattern plus 2'-OMe near 3' end: ggc(F)g(M)g(M)c(F)gu(F)c(F)
# B14: SEQ ID NO:52 (ssRNA)
# RNA: GGAAGGAGAAGAGGAAGUGCACAGGGGUUGGUGUCGGGUGCACAGUAUAAG
# modifications: 2'-F pyrimidines
# B15: SEQ ID NO:53 (ssRNA)
# RNA: B14 RNA with A3G, G5A, A7G, G8A
# modifications: 2'-F pyrimidines
# B16: SEQ ID NO:6 (ssRNA)
# RNA: GGGAGAGGAGAAGAGGAACGUGCUCUGUACGAGGAGUAGCCGGAAAGAAGGCGGUGUGUAGAGGACA
# modifications: 2'-F pyrimidines
# B17: SEQ ID NO:7 (ssRNA)
# RNA: GGGAACGUGCUCUGUACGAGGAGUAGCCGGAAAGAAGGCGGUGUGUAGAGGACAGGAAUGAGGA
# modifications: 2'-F pyrimidines
# B18: SEQ ID NO:8 (ssRNA)
# RNA: GGGAGAGGAGAAGAGGAACGCUGUACGAGGAGUAGCCGGAAAGAAGGCGGUGUGUAGCAGGAAUGAGGA
# modifications: 2'-F pyrimidines
# B19: SEQ ID NO:9 (ssRNA)
# RNA: GGGAGAGGAGAAGAGGAACGUGCUCUGUACGCCGGAAAGAAGGUGUGUAGAGGACAGGAAUGAGGA
# modifications: 2'-F pyrimidines
# B20: SEQ ID NO:10 (ssRNA)
# RNA: GGGAGAGGAGAAGAGGAACGUGCUCUGUACGAGGAGUAGCCGAAAGGCGGUGUGUAGAGGACAGGAAUGAGGA
# modifications: 2'-F pyrimidines
# B21: SEQ ID NO:11 (ssRNA)
# RNA: GGGAGAGGAGAAGAGGAACGUGCUCUGCACGAGGAGUAGCCGGAAAGAAGGCGGCGUGCAGAGGACAGGAAUGAGGA
# modifications: 2'-F pyrimidines
# B22: SEQ ID NO:12 (ssRNA)
# RNA: GGGAGAGGAGAAGAGGAACGCUGCACGAGGAGUAGCCGGAAAGAAGGCGGCGUGCAGC
# modifications: 2'-F pyrimidines
# B23: SEQ ID NO:13 (ssRNA)
# RNA: GGGAGAGGAACGCUGCACGAGGAGUAGCCGGAAAGAAGGCGGCGUGCAGC
# modifications: 2'-F pyrimidines
# B24: SEQ ID NO:14 (ssRNA)
# RNA: GGGAGAGGAGAAGAGGAACGCUACGAGGAGUAGCCGGAAAGAAGGCGGCGUAGC
# modifications: 2'-F pyrimidines
# B25: SEQ ID NO:15 (ssRNA)
# RNA: GGGAGAGGAGAAGAGGAACGCUGCACGAGGAGUAGCCGGAAAGGGCGGCGUGCAGC
# modifications: 2'-F pyrimidines
# B26: SEQ ID NO:16 (ssRNA)
# RNA: GGGAGAGGAGAAGAGGAACGCUGCACGAGGGUAGCCGGAAAGAAGGCGGCGUGCAGC
# modifications: 2'-F pyrimidines
# B27: SEQ ID NO:17 (ssRNA)
# RNA: GGGAGAGGAACGCUACGAGGAGUAGCCGGAAAGAAGGCGGCGUAGC
# modifications: 2'-F pyrimidines
# B28: SEQ ID NO:18 (ssRNA)
# RNA: GGGCUACGAGGAGUAGCCGGAAAGAAGGCGGCGUAGC
# modifications: 2'-F pyrimidines
# B29: SEQ ID NO:19 (ssRNA)
# RNA: GGGAGAGGAACGUACGAGGAGUAGCCGGAAAGAAGGCGGCGUAC
# modifications: 2'-F pyrimidines
# B30: SEQ ID NO:20 (ssRNA)
# RNA: B1 RNA
# modifications: 2'-F pyrimidines
# B31: SEQ ID NO:22 (ssRNA)
# RNA: GGGACGAGGAGUAGCCGGAAAGAAGGCGGCGUC
# modifications: 2'-F pyrimidines
# B32: SEQ ID NO:23 (ssRNA)
# RNA: GGGAGAGGAACGACGAGGAGUAGCCGAAAGGCGGCGUC
# modifications: 2'-F pyrimidines
# B33: SEQ ID NO:24 (ssRNA)
# RNA: B32 RNA with G26U, A27U, A28C, A29G
# modifications: 2'-F pyrimidines
# B34: SEQ ID NO:25 (ssRNA)
# RNA: GGGAGAGGAACGACGAGAACAGCCGGAAAGAAGGCGGCGUC
# modifications: 2'-F pyrimidines
# B35: SEQ ID NO:26 (ssRNA)
# RNA: B34 RNA with A19G, C20U
# modifications: 2'-F pyrimidines
# B36: SEQ ID NO:27 (ssRNA)
# RNA: B34 RNA with A18G, A19G, C20U
# modifications: 2'-F pyrimidines
# B37: SEQ ID NO:28 (ssRNA)
# RNA: GGCGAGGAGUAGCCGGAAAGAAGGCGGCGCC
# modifications: 2'-F pyrimidines
# B38: SEQ ID NO:29 (ssRNA)
# RNA: B37 RNA with G2A, C30U
# modifications: 2'-F pyrimidines
# B39: SEQ ID NO:30 (ssRNA)
# RNA: GGAGAAGAGGAAGUGUGCACAGGGGUUGGUGUCGGGUGCAUACAGUAUAAGAUAGAGGACAGGAAUGAGGA
# modifications: 2'-F pyrimidines
# Target: T1, midkine (full-length)
# Assay: cell_activity; UMR106 migration inhibition, 500 nM RNA
# Conditions: tags: expressed in yeast
# Description: (§1) Chem. 276 (19), 15868-15875, 2001). […] 30 μL of 1.5 μM midkine was applied to the outer surface of the membrane of Chemotaxicell (membrane pore diameter 8 μm, manufactured by Kurabo) to immobilize the midkine to the outer surface of the membrane. The midkine-immobilized Chemotaxicell was placed on a 24-well culture plate containing 500 μL of a medium (supplemented with 0.3% bovine serum albumin, Dulbecco's Modified Eagle's medium) supplemented with each RNA aptamer added thereto at 100 nM. 200 μL of UMR106 cells were placed in the inner layer of the Chemotaxicell chamber at a density of 1×10⁶ cells/mL, and cultured at 37° C. for 4 hours. The cells remaining in the inner layer of the Chemotaxicell chamber were removed, and the cells that had infiltrated and adhered to the midkine-applied surface were fixed with methanol. The Chemotaxicell chamber was immersed in a 1% aqueous solution of Crystal Violet for 30 minutes to stain the cells. After the Chemotaxicell chamber was washed with distilled water and dried, the pigment was extracted with a mixed solution of 200 μL of 1% SDS and 1% triton X100. 150 μL of the extract was transferred to a 96-well microplate, and its absorbance at 590 nm was determined.
# (§2) The aptamer shown by SEQ ID NO:4 is 77 nucleotides long, having the 2′ position of the ribose of the pyrimidine nucleotide thereof fluoro-substituted. To enable the chemical synthesis, to reduce the toxicity, and to improve the stability in the blood, miniaturization and stabilization of this aptamer were performed. The operations of miniaturization and stabilization were performed on the basis of the secondary structure estimated by the MFOLD program, and the activity was evaluated by a cell migration inhibition experiment. In the cell migration inhibition experiment, the RNA concentration was 100 nM or 500 nM. Since some errors occur in experimental results depending on cell condition, a previously assayed sample was included as a positive control in each measurement.
row,Binder,activity
1,B1,109 % of SEQ ID NO:4
2,B2,84 % of SEQ ID NO:4
3,B3,76 % of SEQ ID NO:4
4,B4,53 % of SEQ ID NO:4
5,B5,89 % of SEQ ID NO:4
6,B6,60 % of SEQ ID NO:4
7,B7,60 % of SEQ ID NO:4
8,B8,88 % of SEQ ID NO:4
9,B9,69 % of SEQ ID NO:4
10,B10,88 % of SEQ ID NO:4
11,B11,99 % of SEQ ID NO:4
12,B12,130 % of SEQ ID NO:4
13,B13,86 % of SEQ ID NO:4

# Target: T1, midkine (full-length)
# Assay: cell_activity; 500 nM RNA
# Conditions: tags: expressed in yeast
# Description: (§3) 30 μL of 1.5 μM midkine was applied to the outer surface of the membrane of Chemotaxicell (membrane pore diameter 8 μm, manufactured by Kurabo) to immobilize the midkine to the outer surface of the membrane. The midkine-immobilized Chemotaxicell was placed on a 24-well culture plate containing 500 μL of a medium (supplemented with 0.3% bovine serum albumin, Dulbecco's Modified Eagle's medium) supplemented with each RNA aptamer added thereto at 100 nM. 200 μL of UMR106 cells were placed in the inner layer of the Chemotaxicell chamber at a density of 1×10⁶ cells/mL, and cultured at 37° C. for 4 hours. The cells remaining in the inner layer of the Chemotaxicell chamber were removed, and the cells that had infiltrated and adhered to the midkine-applied surface were fixed with methanol. The Chemotaxicell chamber was immersed in a 1% aqueous solution of Crystal Violet for 30 minutes to stain the cells. After the Chemotaxicell chamber was washed with distilled water and dried, the pigment was extracted with a mixed solution of 200 μL of 1% SDS and 1% triton X100. 150 μL of the extract was transferred to a 96-well microplate, and its absorbance at 590 nm was determined.
# as §2, with “NO:5” for “NO:4”, “2′-position” for “2′ position”, “nucleotide” for “nucleotide thereof”, “The RNA concentration in” for “In”, “experiment” for “experiment, the RNA concentration”
row,Binder,activity
1,B14,100 % of SEQ 40 inhibition
2,B15,100 % of SEQ 40 inhibition

# Target: T1, midkine (full-length)
# Assay: cell_activity; 500 nM RNA
# Conditions: tags: expressed in yeast
# Remark: another data set of the same source
# Description: as §1, §2
row,Binder,activity
1,B16,110 % of SEQ 4 inhibition
2,B17,91 % of SEQ 4 inhibition
3,B18,100 % of SEQ 4 inhibition
4,B19,57 % of SEQ 4 inhibition
5,B20,81 % of SEQ 4 inhibition
6,B21,100 % of SEQ 4 inhibition
7,B22,100 % of SEQ 4 inhibition
8,B23,100 % of SEQ 4 inhibition
9,B24,100 % of SEQ 4 inhibition
10,B25,75 % of SEQ 4 inhibition
11,B26,61 % of SEQ 4 inhibition
12,B27,68 % of SEQ 4 inhibition
13,B28,88 % of SEQ 4 inhibition
14,B29,94 % of SEQ 4 inhibition
15,B30,97 % of SEQ 4 inhibition
16,B31,70 % of SEQ 4 inhibition
17,B32,66 % of SEQ 4 inhibition
18,B33,65 % of SEQ 4 inhibition
19,B34,81 % of SEQ 4 inhibition
20,B35,18 % of SEQ 4 inhibition
21,B36,78 % of SEQ 4 inhibition
22,B37,71 % of SEQ 4 inhibition
23,B38,74 % of SEQ 4 inhibition

# Target: T1, midkine (full-length)
# Assay: cell_activity; 100 nM RNA
# Conditions: tags: expressed in yeast
# Description: as §3
# as §2, with “NO:5” for “NO:4”, “2′-position” for “2′ position”, “nucleotide” for “nucleotide thereof”, “The RNA concentration in” for “In”, “experiment” for “experiment, the RNA concentration”
row,Binder,activity
1,B39,44 % of SEQ 5 inhibition
